Reference: patent US6232070A, “Pharmacological targeting of mRNA cap formation” (priority 1999, dated 2001)

Assays:
[1] = substrate: Nc1ncnc2c1ncn2[C@@H]1O[C@H](COP(=O)(O)OP(=O)(O)OP(=O)(O)O)[C@@H](O)[C@H]1O; experiment: ATP hydrolysis by Cet1p, manganese-dependent; assay type: biochemical, Saccharomyces cerevisiae; conditions: other: 2 mM MnCl2, pH 7.0, 30° C., double-reciprocal plot
Method: (FIG. 8A) Protein titration. Reaction mixtures (10 μl) containing 50 mM Tris HCl (pH 7.0), 5 mM DTT, 2 mM MnCl2, 1 mM [γ^32 P]ATP, and either Cet1p, Cet1(201-549)p, or Cet1(246-549)p were incubated for 15 min at 30° C. Pi release is plotted as a function of input protein. (FIG. 8B) Kinetics. Reaction mixtures (100 μl) containing 50 mM Tris HCl (pH 7.0), 5 mM DTT, 2 mM MnCl2, 1 mM [γ^32 P]ATP, and either 8, 16, or 32 nM Cet1p were incubated at 30° C. Aliquots (10 μl ) were withdrawn at the times indicated and quenched immediately by the addition of […] of 5 M formic acid. Pi release is plotted as a function of time. (FIG. 8C) Hydrolysis of [α^32 P]ATP. […] The products were analyzed by TLC. […] An otherwise identical reaction containing 1 mM [γ^32 P]ATP was analyzed in parallel; Pi release (.cndot.). […]
The extent of ^32 Pi release from [γ^32 P]ATP during a 15 min reaction was proportional to the amount of input Cet1p protein (FIG. 8A). ^32 Pi accumulated with time over 30 min; the rate of reaction varied linearly with Cet1p concentration (FIG. 8B). From a plot of initial rate versus enzyme concentration, a turnover number of 25 s^-1 was calculated. Cet1p catalyzed the quantitative conversion of [α^32P]ATP to [α^32 P]ADP. […] No formation of [α^32 P]AMP from [α^32 P]ATP was detected, even after 20-45 min of incubation, by which time all of the nucleotide had been converted to ADP. […]

[2] = substrate: Nc1ncnc2c1ncn2[C@@H]1O[C@H](COP(=O)(O)OP(=O)(O)OP(=O)(O)O)[C@@H](O)[C@H]1O; experiment: ATP hydrolysis by Cet1(201-549)p; assay type: biochemical, Saccharomyces cerevisiae; conditions: other: ATP hydrolysis by the truncated enzyme; pH 7.0; 30.0 °C
Method: (FIG. 8A) Protein titration. Reaction mixtures (10 μl) containing 50 mM Tris HCl (pH 7.0), 5 mM DTT, 2 mM MnCl2, 1 mM [γ^32 P]ATP, and either Cet1p, Cet1(201-549)p, or Cet1(246-549)p were incubated for 15 min at 30° C. Pi release is plotted as a function of input protein. (FIG. 8B) Kinetics. Reaction mixtures (100 μl) containing 50 mM Tris HCl (pH 7.0), 5 mM DTT, 2 mM MnCl2, 1 mM [γ^32 P]ATP, and either 8, 16, or 32 nM Cet1p were incubated at 30° C. Aliquots (10 μl ) were withdrawn at the times indicated and quenched immediately by the addition of […] of 5 M formic acid. Pi release is plotted as a function of time. (FIG. 8C) Hydrolysis of [α^32 P]ATP. Reaction mixtures (100 μl) containing 50 mM Tris HCl (pH 7.0), 5 mM DTT, 2 mM MnCl2, 1 mM [α^32 P]ATP, and 100 ng of Cet1p were incubated at 30° C. Aliquots (10 μl) were withdrawn at the times indicated and quenched with formic acid. The products were analyzed by TLC. The levels of [α^32 P]ADP (o) and [α^32 P]AMP (q) are plotted as a function of time. An otherwise identical reaction containing 1 mM [γ^32 P]ATP was analyzed in parallel; Pi release (.cndot.). (FIG. 8D) ATP-dependence. Reaction mixtures (20 μl) containing 50 mM Tris HCl (pH 7.0), 5 mM DTT, 2 mM MnC2, 40 pg of Cet1p, and [γ^32 P]ATP as indicated were incubated for 15 min at 30° C. Pi release is plotted as a function of ATP concentration. […]

B1: Cet1p (Saccharomyces cerevisiae S288C) (protein)
chain: MSYTDNPPQTKRALSLDDLVNHDENEKVKLQKLSEAANGSRPFAENLESDINQTETGQAAPIDNYKESTGHGSHSQKPKSRKSSNDDEETDTDDEMGASGEINFDSEMDFDYDKQHRNLLSNGSPPMNDGSDANAKLEKPSDDSIHQNSKSDEEQRIPKQGNEGNIASNYITQVPLQKQKQTEKKIAGNAVGSVVKKEEEANAAVDNIFEEKATLQSKKNNIKRDLEVLNEISASSKPSKYRNVPIWAQKWKPTIKALQSINVKDLKIDPSFLNIIPDDDLTKSVQDWVYATIYSIAPELRSFIELEMKFGVIIDAKGPDRVNPPVSSQCVFTELDAHLTPNIDASLFKELSKYIRGISEVTENTGKFSIIESQTRDSVYRVGLSTQRPRFLRMSTDIKTGRVGQFIEKRHVAQLLLYSPKDSYDVKISLNLELPVPDNDPPEKYKSQSPISERTKDRVSYIHNDSCTRIDITKVENHNQNSKSRQSETTHEVELEINTPALLNAFDNITNDSKEYASLIRTFLNNGTIIRRKLSSLSYEIFEGSKKVM
notes: the two truncated proteins were as active as full-length Cet1p in hydrolyzing ATP; His-tag; made in house; host or cells: Escherichia coli BL21(DE3)
Question: How did the Km [1] turn out when B1 was run?
Answer: Its Km is 2.8 µM.

B2: Cet1(201-549)p (Saccharomyces cerevisiae S288C) (protein)
chain: ANAAVDNIFEEKATLQSKKNNIKRDLEVLNEISASSKPSKYRNVPIWAQKWKPTIKALQSINVKDLKIDPSFLNIIPDDDLTKSVQDWVYATIYSIAPELRSFIELEMKFGVIIDAKGPDRVNPPVSSQCVFTELDAHLTPNIDASLFKELSKYIRGISEVTENTGKFSIIESQTRDSVYRVGLSTQRPRFLRMSTDIKTGRVGQFIEKRHVAQLLLYSPKDSYDVKISLNLELPVPDNDPPEKYKSQSPISERTKDRVSYIHNDSCTRIDITKVENHNQNSKSRQSETTHEVELEINTPALLNAFDNITNDSKEYASLIRTFLNNGTIIRRKLSSLSYEIFEGSKKVM
notes: The kinetic parameters determined for ATP hydrolysis by Cet1(201-549)p; His-tag; made in house; host or cells: Escherichia coli BL21(DE3)
Question: How did the Km [2] turn out when B2 was run?
Answer: Its Km is 3.3 µM.
